This is an account of results in patent US20220162331A1 (CHENGDU CONMED BIOSCIENCES, published 2022).

Positions count from the first letter of the chain named. Read-outs that look alike come from different tables or passages of the source.

For assay [1], the target named is T1, human CD73 on Calu6 cells (human, UniProt P21589 27-549).
T1 sequence (looked up): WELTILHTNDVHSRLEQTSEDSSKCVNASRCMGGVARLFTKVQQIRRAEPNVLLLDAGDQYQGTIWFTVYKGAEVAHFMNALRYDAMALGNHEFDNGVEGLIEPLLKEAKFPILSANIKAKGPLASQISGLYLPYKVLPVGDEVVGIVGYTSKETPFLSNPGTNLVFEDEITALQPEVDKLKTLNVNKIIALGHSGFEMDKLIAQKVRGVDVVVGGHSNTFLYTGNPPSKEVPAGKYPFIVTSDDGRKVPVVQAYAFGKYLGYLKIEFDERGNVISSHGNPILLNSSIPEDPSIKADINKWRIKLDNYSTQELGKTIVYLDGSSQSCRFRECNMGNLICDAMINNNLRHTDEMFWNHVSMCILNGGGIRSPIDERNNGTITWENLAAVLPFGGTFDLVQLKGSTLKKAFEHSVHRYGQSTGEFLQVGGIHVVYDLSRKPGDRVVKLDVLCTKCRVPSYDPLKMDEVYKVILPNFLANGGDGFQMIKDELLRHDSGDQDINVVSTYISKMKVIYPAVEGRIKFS
Description: cell-based or functional assay.

Assay [2] concerns the target T2, recombinant human CD73 extracellular domain (Trp27-Lys546) with C-terminal 6-histidine tag (human, UniProt P21589 27-547).
T2 construct: also called hCD73; hCD73-cHis
T2 sequence: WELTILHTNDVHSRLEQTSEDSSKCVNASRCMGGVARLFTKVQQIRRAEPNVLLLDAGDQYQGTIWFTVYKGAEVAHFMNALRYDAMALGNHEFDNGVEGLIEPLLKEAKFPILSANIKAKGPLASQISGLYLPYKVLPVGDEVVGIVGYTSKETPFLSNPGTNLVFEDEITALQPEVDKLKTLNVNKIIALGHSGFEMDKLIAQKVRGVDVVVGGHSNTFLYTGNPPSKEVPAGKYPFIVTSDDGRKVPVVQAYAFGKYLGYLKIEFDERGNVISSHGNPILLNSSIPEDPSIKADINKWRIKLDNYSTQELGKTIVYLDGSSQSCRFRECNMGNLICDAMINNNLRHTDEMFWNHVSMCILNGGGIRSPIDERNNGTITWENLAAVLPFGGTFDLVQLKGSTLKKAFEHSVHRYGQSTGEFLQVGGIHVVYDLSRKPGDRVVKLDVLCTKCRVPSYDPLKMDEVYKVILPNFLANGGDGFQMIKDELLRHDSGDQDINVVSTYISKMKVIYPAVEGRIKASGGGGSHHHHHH
Kind of assay: SPR, Biacore T200, antibody captured on Protein A chip, hCD73 ECD as analyte, 1:1 Langmuir. How it is done:
The affinity of CD73 antibody was determined by plasma surface resonance on Biacore T200. At room temperature, the antibody concentration was diluted to 0.5 μg/mL with 1×HBS-EP buffer (prepared from HBS-EP+Buffer 10×, GE, BR1008-26), the Protein A chip (GE, 29-1275-56) was coated with a flow rate of 10 μL per minute, the capture time was about 40 seconds, and the coated RU value was controlled to be about 100 RU. The recombinant human CD73 extracellular domain protein was diluted to 3 μg/mL with 1×HBS-EP buffer, diluted to two-fold gradient, a total of 6 concentrations, 200 μL of each concentration gradient. The 1×HBS-EP buffer was used as a control, the flow rate was 30 μl/min, the binding time was 120 seconds, and the dissociation time was 600 seconds. The affinity was fitted using Langmuir 1:1 Kinetic theoretical model and analyzed by Biacore T200 Evaluation Software (Table 3).

Assay [3] has as its target T3, human full-length CD73 on hCD73-CHO-1C11 cells (human, UniProt P21589 27-549).
T3 construct: it may be a nucleotide entry; also called CHO-CD73-1C11
T3 sequence: T1 sequence (looked up)
Kind of assay: FACS on CHO-CD73-1C11 cells.

Assay [4] has as its target T1, human CD73 on Calu6 cells. Kind of assay: cell-based or functional assay. The source holds these as a separate data set.
The target of assay [5] is T1, human CD73 on Calu6 cells. Kind of assay: cell-based or functional assay. The source holds these as a separate data set.
In assay [6] the target is T2, recombinant human CD73 extracellular …. Kind of assay: ELISA, plate coated with recombinant CD73 extracellular domain. (In general: In an ELISA, binding on a coated surface is turned into a signal by an enzyme label.)
In assay [7] the target is T4, recombinant cynomolgus monkey CD73 extracellular domain (Trp27-Lys546) (cynomolgus monkey, UniProt P21589 27-547 (human entry)).
T4 construct: also called cynoCD73; recombinant monkey CD73 extracellular domain
T4 chain: T2 sequence with M199T, T350A, V466I
The description is as above.

Assay [8] concerns the target T1, human CD73 on Calu6 cells. Kind of assay: FACS on Calu6 cells.
The target in assay [9] is T2, recombinant human CD73 extracellular …. Description: cell-based or functional assay.
Assay [10] addresses T1, human CD73 on Calu6 cells. Description: cell-based or functional assay. This is another data set of the same source.

B1: humanized anti-CD73 antibody 6G8 VH-v8/VK-v4 (antibody, V domains shown)
VH: QVTLRESGPALVKPTQTLTLTCTFSGFSLSTSGMGVGWIRQPPGKALEWLAHIWWDEDKYYNPSLKSRLTISKDTSKNQVVLTMTNMDPVDTATYYCARRERWAWFAYWGQGTLVTVSS
VL: EIVMTQSPATLSVSPGERATLSCRASQNVFTNVAWYQQKPGQAPRVLIYSASYRYSGIPARFSGSGSGTEFTLTISSLQSEDFAVYFCQQYNSYPTFGQGTKLEIK
notes: Human IgG1 CH1-CH3 constant region and kappa constant region; also called hu6G8 VHv8 + hu6G8 VkV4
For B1, in [1], the “CD73 endocytosis ratio %, 0 minute” value was found to be 0%; the “CD73 endocytosis ratio %, 30 minutes” value is 28%; the “CD73 endocytosis ratio %, 120 minutes” value was 37%; the “CD73 endocytosis ratio %, 240 minutes” value stood at 46%. In addition, in assay [2], the Kd (commonly the free concentration of one partner at which half of the binding sites on the other are occupied at equilibrium, for simple one-to-one binding) is 0.257 nM; the koff – broadly, a measure of how fast the partners let go of each other – amounted to 8.48e-05 s⁻¹; the kon (in general, the second-order rate constant of association) was determined as 330000 M⁻¹ s⁻¹.

B2: CD73 antibody 22C12 (antibody, V domains shown)
VH: QVQFQQSGAELARPGASVKLSCKASGYTFTGYWIQWVKQRPGQGLEWIGAIYPGDDDTRYTQKFKGRATLTADTSSSTAYMQLSSLASEDSAVYYCARGNWDDWDFDVWGAGTTVTVSS
VL: DIQMTQTTSSLSASLGDRVTISCRASQDISNYLNWYQQKPDGTVKLLIHYTSRLHSGVPSRFSGSGSGTDYSLTISNLEQEDIATYFCQQGDTLPWTFGGGTKLEIK
notes: Mouse variable regions on human IgG heavy chain constant region and human kappa constant region (chimeric IgG); also called Clone 22C12; mAb22C12
For the molecule B2, the EC50 (commonly the midpoint of the concentration-response curve) in [3] was 1.43 nM; in assay [6] it was 0.04 nM; in assay [7], 0.05 nM; in [8] it was 1.2 nM. Further, the “CD73 endocytosis ratio %, 60 minutes” value in [4] was determined as 6.1%. Besides, in assay [4], the “CD73 endocytosis ratio %, 120 minutes” value came to 11.1%. The “CD73 endocytosis ratio %, 480 minutes” value in assay [4] was 13.2%. Further, the “Inhibition of CD73 enzyme activity IC50(nM), Calu6” value (shortened to “Inhibition … Calu6”) in assay [5] is 0.97 nM.

B3: CD73 antibody 6G8 (chimeric) (antibody, V domains shown)
VH: QVTLKESGPGILKPSQTLSLTCSFSGFSLNTSGMGVGWIRQPSGKGLEWLAHIWWDDDKYYNPSLKSQLTISKDTSRNQVFLRIASVDTADTATYYCARRERWAWFAYWGQGTLVTVSA
VL: DIVMTQSQKFMSASVGDRVSVTCKASQNVFTNVAWYQQKPGQSPKVLIYSASYRYSGVPDRFTGSGSGTDFTLTINNVQSEDLAEYFCQQYNSYPTFGSGTKLEIK
notes: Mouse variable regions on human IgG heavy chain constant region and human kappa constant region (chimeric IgG); also called Clone 6G8; 6G8 Chimera
On to B3, for which the EC50 in assay [3] came out at 1.91 nM. Also, in [4], the “CD73 endocytosis ratio %, 30 minutes” value was 17.1%; the “CD73 endocytosis ratio %, 60 minutes” value turned out to be 38.5%; the “CD73 endocytosis ratio %, 120 minutes” value came to 22.2%; the “CD73 endocytosis ratio %, 240 minutes” value stood at 35.3%. For the same molecule, in assay [4], the “CD73 endocytosis ratio %, 480 minutes” value is 47.7%. Further, in assay [9], the “Inhibition of CD73 enzyme activity IC50(nM), Soluble CD73” value came out at 1.03 nM. The “Inhibition … Calu6” value in assay [5] amounted to 1.72 nM. Also, in assay [2], the dissociation constant Kd worked out at 0.18 nM, the koff is 0.000111 s⁻¹ and the kon is 617000 M⁻¹ s⁻¹. In [6], the EC50 was 0.02 nM. In addition, the half-maximal effective concentration (EC50) in assay [7] was 0.02 nM. This molecule also registered an EC50 in [8] of 1.03 nM.

B4: CD73 antibody 14H10 (antibody, V domains shown)
VH: QIQLQQSGAELARPGASVNLSCKASGYSFTSYWMQWLKQRPGQGLEWIGAIYPGDGDTRYTQKFKGKATLTADKSSSTAYMQLSSLASEDSAVYYCALFSYWGQGTLVTVSA
VL: DIQMTQSPSSLSASLGERVSLTCRASQDIGSSLNWLQQEPDGTFKRLIYATSTLDSGVPKRFSGSRSGSDYSLTISSLESEDFVDYYCLQYASFPYTFGGGTKLEIK
notes: Mouse variable regions on human IgG heavy chain constant region and human kappa constant region (chimeric IgG)
For the molecule B4, the 50% effective concentration (EC50) is 2.62 nM in assay [3], 0.03 nM in assay [6], 0.07 nM in [7] and 2.28 nM in assay [8]. The “CD73 endocytosis ratio %, 60 minutes” value in assay [4] is 33.1%. Also, the “Inhibition … Calu6” value in assay [5] was 1.71 nM.

B5: control antibody 11F11-huG1 (antibody, from another filing, human IgG1, V domains shown)
VH: QVQLVESGGGVVQPGRSLRLSCATSGFTFSNYGMHWVRQAPGKGLEWVAVILYDGSNKYYPDSVKGRFTISRDNSKNTLYLQMNSLRAEDTAVYYCARGGSSWYPDSFDIWGQGTMVTVSS
VL: DIQMTQSPSSLSASVGDRVTITCRASQGISSWLAWYQQKPEKAPKSLIYAASSLQSGVPSRFSGSGSGTDFTLTISSLQPEDFATYYCQQYNSYPLTFGGGTKVEIKR
Regarding B5, in assay [10], the CD73 endocytosis ratio %, 0 minute came to 0%; the CD73 endocytosis ratio %, 30 minutes is 28%; the CD73 endocytosis ratio %, 120 minutes came out at 31%; the CD73 endocytosis ratio %, 240 minutes amounted to 46%.
